Measurements: PMC9275217, “Improvement of Fusel Alcohol Production by Engineering of the Yeast Branched-Chain Amino Acid Aminotransaminase” (Applied and Environmental Microbiology, 2022)

Columns and labels:
Bat1ΔN16^WT [1] = biological target: T1, Bat1ΔN16^WT (Saccharomyces cerevisiae, UniProt P38891, G333S); assay: NADH absorbance […] nm, coupled to glutamate dehydrogenase; type: biochemical; settings: reverse reaction; 2 mM KG, 5 mM NAD+, 50 μM PLP, 200 mM potassium phosphate pH 8.5, 30°C; apparent
T1 construct: gene BAT1; first 16 residues (mitochondrial-targeting signal) removed; N-terminal His-tag (pET53-dest, tag not reported cut); E. coli BL21(DE3); dimer
T1 sequence (P38891 17-393 G333S): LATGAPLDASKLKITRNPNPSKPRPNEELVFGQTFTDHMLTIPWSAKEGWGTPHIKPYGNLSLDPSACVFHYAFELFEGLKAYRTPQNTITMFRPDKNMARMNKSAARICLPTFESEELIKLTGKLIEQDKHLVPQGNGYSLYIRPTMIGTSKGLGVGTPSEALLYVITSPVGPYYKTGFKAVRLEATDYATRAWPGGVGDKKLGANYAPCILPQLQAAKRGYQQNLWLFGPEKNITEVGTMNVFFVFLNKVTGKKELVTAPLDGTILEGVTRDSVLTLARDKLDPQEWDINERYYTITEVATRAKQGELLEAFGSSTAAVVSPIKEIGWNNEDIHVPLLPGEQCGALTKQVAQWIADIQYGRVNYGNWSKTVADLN

Bat1ΔN16^WT [2] = biological target: T2, Bat1ΔN16^WT (Saccharomyces cerevisiae, UniProt P38891); assay: as above; type: biochemical; settings: reverse reaction; 2 mM KG, 5 mM NAD+, 50 μM PLP, 200 mM potassium phosphate pH 8.5, 30°C; apparent
T2 construct: gene BAT1; first 16 residues (mitochondrial-targeting signal) removed; N-terminal His-tag (pET53-dest, tag not reported cut); E. coli BL21(DE3); dimer
T2 sequence (P38891 17-393): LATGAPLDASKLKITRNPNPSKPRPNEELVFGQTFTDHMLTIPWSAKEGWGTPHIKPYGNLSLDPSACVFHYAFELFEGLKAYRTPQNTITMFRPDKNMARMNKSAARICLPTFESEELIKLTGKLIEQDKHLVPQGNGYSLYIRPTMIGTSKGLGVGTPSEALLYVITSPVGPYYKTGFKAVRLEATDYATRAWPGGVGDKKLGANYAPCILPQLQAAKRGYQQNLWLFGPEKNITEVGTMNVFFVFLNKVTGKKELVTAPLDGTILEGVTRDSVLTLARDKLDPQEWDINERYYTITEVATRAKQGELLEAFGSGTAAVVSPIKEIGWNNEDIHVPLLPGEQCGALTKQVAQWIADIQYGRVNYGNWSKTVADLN

purified protein [3] = substrate: CC[C@H](C)C(=O)C(=O)O; assay: purified protein; type: biochemical, Saccharomyces cerevisiae; settings: forward reaction, 100 mM Glu, 50 μM PLP, 100 mM NH4Cl, 0.25 mM NADH, 200 mM potassium phosphate pH 8.0, 30°C, apparent
purified protein [4] = substrate: CC(C)CC(=O)C(=O)O; assay: purified protein; type: biochemical, Saccharomyces cerevisiae; settings: forward reaction, 100 mM Glu, 50 μM PLP, 100 mM NH4Cl, 0.25 mM NADH, 200 mM potassium phosphate pH 8.0, 30°C, apparent
purified protein [5] = substrate: CC(C)C(=O)C(=O)O; assay: purified protein; type: biochemical, Saccharomyces cerevisiae; settings: forward reaction, 100 mM Glu, 50 μM PLP, 100 mM NH4Cl, 0.25 mM NADH, 200 mM potassium phosphate pH 8.0, 30°C, apparent
purified protein [6] = substrate: CC(C)C[C@H](N)C(=O)O; assay: purified protein; settings: reverse reaction, 2 mM KG, 5 mM NAD+, 50 μM PLP, 200 mM potassium phosphate pH 8.5, 30°C, apparent
purified protein [7] = substrate: CC[C@H](C)[C@H](N)C(=O)O; assay: purified protein; settings: reverse reaction, 2 mM KG, 5 mM NAD+, 50 μM PLP, 200 mM potassium phosphate pH 8.5, 30°C, apparent
purified protein [8] = substrate: CC(C)[C@H](N)C(=O)O; assay: purified protein; settings: reverse reaction, 2 mM KG, 5 mM NAD+, 50 μM PLP, 200 mM potassium phosphate pH 8.5, 30°C, apparent

## CC(C)C[C@H](N)C(=O)O [Leu]
Bat1ΔN16^WT [1]
  Km: 3.08 ± 1.42 mM
Bat1ΔN16^WT [2]
  Km: 0.285 ± 0.0679 mM

B1: Bat2^WT (Saccharomyces cerevisiae S288C; G316S) (protein)
chain: MTLAPLDASKVKITTTQHASKPKPNSELVFGKSFTDHMLTAEWTAEKGWGTPEIKPYQNLSLDPSAVVFHYAFELFEGMKAYRTVDNKITMFRPDMNMKRMNKSAQRICLPTFDPEELITLIGKLIQQDKCLVPEGKGYSLYIRPTLIGTTAGLGVSTPDRALLYVICCPVGPYYKTGFKAVRLEATDYATRAWPGGCGDKKLGANYAPCVLPQLQAASRGYQQNLWLFGPNNNITEVGTMNAFFVFKDSKTGKKELVTAPLDGTILEGVTRDSILNLAKERLEPSEWTISERYFTIGEVTERSKNGELLEAFGSSTAAIVSPIKEIGWKGEQINIPLLPGEQTGPLAKEVAQWINGIQYGETEHGNWSRVVTDLN
notes: N-terminal His-tag (pET53-dest, tag not reported cut); E. coli BL21(DE3); dimer
Purified protein [3]
  Km: 308 ± 134 µM
  kcat: 2.01 ± 0.282 s⁻¹
  kcat/Km: 6530 M⁻¹ s⁻¹
Purified protein [4]
  Km: 681 ± 189 µM
  kcat: 5.42 ± 0.615 s⁻¹
  kcat/Km: 7960 M⁻¹ s⁻¹
Purified protein [5]
  Km: 1730 ± 826 µM
  kcat: 1.79 ± 0.521 s⁻¹
  kcat/Km: 1030 M⁻¹ s⁻¹
Purified protein [6]
  Km: 3890 ± 1060 µM
  kcat: 1.61 s⁻¹
  kcat/Km: 414 M⁻¹ s⁻¹
Purified protein [7]
  Km: 3400 ± 1140 µM
  kcat: 1.8 s⁻¹
  kcat/Km: 529 M⁻¹ s⁻¹
Purified protein [8]
  Km: 13300 ± 3440 µM
  kcat: 1.4 s⁻¹
  kcat/Km: 106 M⁻¹ s⁻¹

B2: Bat1ΔN16^WT (Saccharomyces cerevisiae S288C) (protein)
chain: LATGAPLDASKLKITRNPNPSKPRPNEELVFGQTFTDHMLTIPWSAKEGWGTPHIKPYGNLSLDPSACVFHYAFELFEGLKAYRTPQNTITMFRPDKNMARMNKSAARICLPTFESEELIKLTGKLIEQDKHLVPQGNGYSLYIRPTMIGTSKGLGVGTPSEALLYVITSPVGPYYKTGFKAVRLEATDYATRAWPGGVGDKKLGANYAPCILPQLQAAKRGYQQNLWLFGPEKNITEVGTMNVFFVFLNKVTGKKELVTAPLDGTILEGVTRDSVLTLARDKLDPQEWDINERYYTITEVATRAKQGELLEAFGSGTAAVVSPIKEIGWNNEDIHVPLLPGEQCGALTKQVAQWIADIQYGRVNYGNWSKTVADLN
notes: first 16 residues (mitochondrial-targeting signal) removed; N-terminal His-tag (pET53-dest, tag not reported cut); E. coli BL21(DE3); dimer
Purified protein [3]
  Km: 218 ± 111 µM
  kcat: 4.73 ± 1.29 s⁻¹
  kcat/Km: 21700 M⁻¹ s⁻¹
Purified protein [4]
  Km: 323 ± 101 µM
  kcat: 15.4 ± 2.92 s⁻¹
  kcat/Km: 47700 M⁻¹ s⁻¹
Purified protein [5]
  Km: 298 ± 100 µM
  kcat: 9.55 ± 1.92 s⁻¹
  kcat/Km: 32100 M⁻¹ s⁻¹
Purified protein [7]
  Km: 220 ± 102 µM
  kcat: 3.74 s⁻¹
  kcat/Km: 17000 M⁻¹ s⁻¹
Purified protein [8]
  Km: 454 ± 123 µM
  kcat: 3.37 s⁻¹
  kcat/Km: 7420 M⁻¹ s⁻¹

B3: Bat2^WT (Saccharomyces cerevisiae S288C) (protein)
chain: MTLAPLDASKVKITTTQHASKPKPNSELVFGKSFTDHMLTAEWTAEKGWGTPEIKPYQNLSLDPSAVVFHYAFELFEGMKAYRTVDNKITMFRPDMNMKRMNKSAQRICLPTFDPEELITLIGKLIQQDKCLVPEGKGYSLYIRPTLIGTTAGLGVSTPDRALLYVICCPVGPYYKTGFKAVRLEATDYATRAWPGGCGDKKLGANYAPCVLPQLQAASRGYQQNLWLFGPNNNITEVGTMNAFFVFKDSKTGKKELVTAPLDGTILEGVTRDSILNLAKERLEPSEWTISERYFTIGEVTERSKNGELLEAFGSGTAAIVSPIKEIGWKGEQINIPLLPGEQTGPLAKEVAQWINGIQYGETEHGNWSRVVTDLN
notes: as for B1
Purified protein [3]
  Km: 150 ± 59.4 µM
  kcat: 5.48 ± 1.04 s⁻¹
  kcat/Km: 36500 M⁻¹ s⁻¹
Purified protein [4]
  Km: 212 ± 61 µM
  kcat: 11.6 ± 1.82 s⁻¹
  kcat/Km: 54700 M⁻¹ s⁻¹
Purified protein [5]
  Km: 180 ± 44.4 µM
  kcat: 8.05 ± 1.02 s⁻¹
  kcat/Km: 44700 M⁻¹ s⁻¹
Purified protein [6]
  Km: 189 ± 60 µM
  kcat: 2.3 s⁻¹
  kcat/Km: 12200 M⁻¹ s⁻¹
Purified protein [7]
  Km: 119 ± 38.9 µM
  kcat: 2.61 s⁻¹
  kcat/Km: 21900 M⁻¹ s⁻¹
Purified protein [8]
  Km: 511 ± 111 µM
  kcat: 2.71 s⁻¹
  kcat/Km: 5300 M⁻¹ s⁻¹

B4: Bat1ΔN16^WT (Saccharomyces cerevisiae S288C; G333S) (protein)
chain: LATGAPLDASKLKITRNPNPSKPRPNEELVFGQTFTDHMLTIPWSAKEGWGTPHIKPYGNLSLDPSACVFHYAFELFEGLKAYRTPQNTITMFRPDKNMARMNKSAARICLPTFESEELIKLTGKLIEQDKHLVPQGNGYSLYIRPTMIGTSKGLGVGTPSEALLYVITSPVGPYYKTGFKAVRLEATDYATRAWPGGVGDKKLGANYAPCILPQLQAAKRGYQQNLWLFGPEKNITEVGTMNVFFVFLNKVTGKKELVTAPLDGTILEGVTRDSVLTLARDKLDPQEWDINERYYTITEVATRAKQGELLEAFGSSTAAVVSPIKEIGWNNEDIHVPLLPGEQCGALTKQVAQWIADIQYGRVNYGNWSKTVADLN
notes: as for B2
Purified protein [4]
  Km: 1570 ± 505 µM
  kcat: 4.95 ± 0.945 s⁻¹
  kcat/Km: 3150 M⁻¹ s⁻¹
